{"source": "paper doi:10.1101/2021.10.12.464104", "about": "(bioRxiv, 2021)", "binders": {"B1": {"name": "PLM-YFP (human phospholemman fused to the N-terminus of YFP) (natural protein)", "chain": "ESPKEHDPFTYDYQSLQIGGLVIAGILFILGILIVLSRRCRCKFNQQQRTGEPDEEEGTFRSSIRRLSTRRR"}}, "biological_target": "mCer-α1 (human Na+/K+-ATPase α1 subunit fused to the C-terminus of mCerulean) (human, UniProt P05023 1-1023)", "experiment": "FRET or BRET", "data": [{"binder": "B1", "values": [{"measurement": "stoichiometry N", "value": "> 1"}]}]}
